Test results taken from patent US20020177231A1 (published 2002).

Molecular target: T1, PYK2 (UniProt Q14289 1-1009, limits assumed)
T1 construct: Endogenous protein in cell lysate, detected with anti-PYK2 monoclonal antibody P47120 (Transduction Labs)
Experiment: GST pull-down from JY8-8 lysate, anti-Pyk2 immunoblot
Procedure: In preparation of cell lysate including Pyk2, JY8-8 cell lysate was prepared by disrupting 4×10⁷ exponentially growing cells in one ml of Ipegal Lysis Buffer (described above) for 10 minutes on ice. Lysate was clarified by centrifugation at 10,000 rpm in a microfuge at 4° C. JY8-8 lysate (corresponding to approximately 1×10⁷ cells) was incubated for 90 minutes with 30 μl glutathione agarose on which approximately one μg of GST or GST-containing fusion protein was immobilized. The resin was washed three times with one ml Ipegal lysis buffer.
Pyk2 present in lysates of JY8-8 cells bound specifically to GST-LD protein but not to GST alone. Pyk2 binding was detected with wild-type GST-LD, and GST-LD proteins with mutations in the second or fourth LD motifs.

T1 sequence (Q14289 whole entry): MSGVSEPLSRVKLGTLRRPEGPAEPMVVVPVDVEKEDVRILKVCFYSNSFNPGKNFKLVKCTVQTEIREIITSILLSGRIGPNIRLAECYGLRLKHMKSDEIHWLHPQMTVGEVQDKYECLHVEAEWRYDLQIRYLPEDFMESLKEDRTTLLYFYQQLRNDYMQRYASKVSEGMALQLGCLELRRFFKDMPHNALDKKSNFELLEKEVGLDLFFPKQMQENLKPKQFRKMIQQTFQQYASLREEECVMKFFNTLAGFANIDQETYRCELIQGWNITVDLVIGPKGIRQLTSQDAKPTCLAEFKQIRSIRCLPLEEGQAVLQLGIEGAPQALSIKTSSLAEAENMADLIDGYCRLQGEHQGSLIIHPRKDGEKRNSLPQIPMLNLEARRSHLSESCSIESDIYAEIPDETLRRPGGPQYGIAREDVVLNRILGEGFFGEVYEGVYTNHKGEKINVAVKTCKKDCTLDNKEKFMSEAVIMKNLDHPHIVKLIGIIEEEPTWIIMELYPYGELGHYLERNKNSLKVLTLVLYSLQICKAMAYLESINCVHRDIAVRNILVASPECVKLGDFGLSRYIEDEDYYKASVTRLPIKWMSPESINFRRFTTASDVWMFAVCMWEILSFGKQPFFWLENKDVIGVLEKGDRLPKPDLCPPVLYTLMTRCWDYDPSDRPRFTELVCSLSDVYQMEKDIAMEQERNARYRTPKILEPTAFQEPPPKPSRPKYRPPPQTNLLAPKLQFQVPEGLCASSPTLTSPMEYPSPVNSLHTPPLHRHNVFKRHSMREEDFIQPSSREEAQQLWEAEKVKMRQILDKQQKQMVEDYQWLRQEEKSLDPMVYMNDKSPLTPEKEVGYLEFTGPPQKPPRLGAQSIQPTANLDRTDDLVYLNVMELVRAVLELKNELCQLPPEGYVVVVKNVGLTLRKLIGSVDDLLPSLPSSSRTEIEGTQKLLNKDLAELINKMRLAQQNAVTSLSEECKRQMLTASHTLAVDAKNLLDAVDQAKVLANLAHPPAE

B1: GST-LD with a mutation in the third LD motif (other)
chain: EELDALLEELERSTLQDSDEYSNPAPLPLDQHSRKETNLDETSEILSIQDNTSPLPAQLVYTTNIQELNVYSEAQEPKESPPPSKTSAAAQAAALMAHLTEMQAKVAVRADAGKKHLPDKQDHKASLDSMLGGLEQELQDLGIATVPK
notes: not shown: glutathione-S-transferase (GST) encoded by vector pGEX-4T-1 (Pharmacia)
Q: Does B1 bind?
A: no binding
